Measurements as given in patent US20130115224A1 (published 2013).
Numbering of substitutions follows the chain as printed.

B1: 3C-H2 / LOE7 scFv (scFv, V domains shown)
VH: QVQLVESGGGLVQPGRSLRLSCAASGFTFDDYAMHWVRQAPGKGLDWVSAITWNSGHIDYADSVEGRFAVSRDNAKNALYLQMNSLRPEDTAVYYCAKASYLSTASSLEYWGQGTLVTVSS
VL: not shown
B2: 2SD4 VH / VLLOE5 scFv (scFv, V domains shown)
VH: B1 VH with A97T, A105S, E109D, Y110N
VL: DIQMTQSPSSLSASIGDRVTITCRASQGIRNYLAWYQQKPGKAPKLLIYAASTLQSGVPSRFSGSGSGTDFTLTISSLQPEDVATYYCQKYNSAPYYFGQGTKVEIK

What was measured:
recombinant human TNFα [1] = biological target: T1, recombinant human TNFα (human, UniProt P01375 77-233, biotinylated (2:1 molar ratio of biotin to rhTNFα) in the SPR assays; 125I-labeled in the receptor binding assays); assay: SPR (BIAcore), scFv over biotinylated rhTNFα
T1 construct: also called rhTNFα; rhTNF
T1 sequence (P01375 77-233 limits assumed): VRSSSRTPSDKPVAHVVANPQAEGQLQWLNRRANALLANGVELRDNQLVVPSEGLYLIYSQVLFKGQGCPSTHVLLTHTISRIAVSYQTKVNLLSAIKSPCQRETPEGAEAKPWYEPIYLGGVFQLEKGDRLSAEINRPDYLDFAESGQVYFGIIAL

recombinant human TNFα [2] = biological target: T1, recombinant human TNFα; assay: SPR (BIAcore), scFv over biotinylated rhTNFα; remark: listed apart in the source

| Binder | fold faster off rate than with the D2E7 VH CDR3 (recombinant human TNFα [1]) | koff (recombinant human TNFα [2]) |
| --- | --- | --- |
| B1 | 3 fold | 0.0015 s⁻¹ |
| B2 | – | 0.0116 s⁻¹ |
